Earlier results as cited in article PMC8616177.
Like-named read-outs stand apart in the source and are kept apart here.

Key:
EGFR (Homo sapiens) [1] = biological target: EGFR (Homo sapiens) (UniProt P00533)
EGFR (Homo sapiens) [2] = biological target: EGFR (Homo sapiens) (UniProt P00533); remark: listed apart in the source

Substance	Kd (EGFR (Homo sapiens) [1]) [µM]	Kd (EGFR (Homo sapiens) [2]) [µM]
EGF (from UniProt P01133)	0.0015	
GE11		0.022
